Ho/Con_1a data for 54 molecules are collected here from patent US20150344570A1 (published 2015).

To fix the notation:
B1: GpH7-B3 variant E333_03V/GpL16-k0 (antibody, human IgG1, kappa)
heavy: not shown
light: DIVMTQSPLSLPVTPGEPASISCQASESLVHSNRNTYLHWYLQKPGQSPQLLIYKVSNRFSGVPDRFSGSGSGTDFTLKISRVEAEDVGVYYCSQNTHVPPTFGQGTKVEIERTVAAPSVFIFPPSDEQLKSGTASVVCLLNNFYPREAKVQWKVDNALQSGNSQESVTEQDSKDSTYSLSSTLTLSKADYEKHKVYACEVTHQGLSSPVTKSFNRGEC
notes: also called Ho Ab E333_03V
B2: GpH7-B3 variant H268_12R/GpL16-k0 (antibody, human IgG1, kappa)
heavy: not shown
light: B1 light
notes: also called Ho Ab H268_12R
B3: GpH7-B3 variant I336_06M/GpL16-k0 (antibody, human IgG1, kappa)
heavy: not shown
light: B1 light
notes: also called Ho Ab I336_06M
B4: GpH7-B3 variant G236_02A/GpL16-k0 (antibody, human IgG1, kappa)
heavy: not shown
light: B1 light
notes: also called Ho Ab G236_02A
B5: GpH7-B3 variant L328_20W/GpL16-k0 (antibody, human IgG1, kappa)
heavy: not shown
light: B1 light
notes: also called Ho Ab L328_20W
B6: GpH7-B3 variant L328_19Q/GpL16-k0 (antibody, human IgG1, kappa)
heavy: not shown
light: B1 light
notes: also called Ho Ab L328_19Q
B7: GpH7-B3 variant P238_06M/GpL16-k0 (antibody, human IgG1, kappa)
heavy: not shown
light: B1 light
notes: also called Ho Ab P238_06M
B8: GpH7-B3 variant E333_09D/GpL16-k0 (antibody, human IgG1, kappa)
heavy: not shown
light: B1 light
notes: also called Ho Ab E333_09D
B9: GpH7-B3 variant L328_10E/GpL16-k0 (antibody, human IgG1, kappa)
heavy: not shown
light: B1 light
notes: also called Ho Ab L328_10E
B10: GpH7-B3 variant E333_16H/GpL16-k0 (antibody, human IgG1, kappa)
heavy: not shown
light: B1 light
notes: also called Ho Ab E333_16H
B11: GpH7-B3 variant H268_14T/GpL16-k0 (antibody, human IgG1, kappa)
heavy: not shown
light: B1 light
notes: also called Ho Ab H268_14T
B12: GpH7-B3 variant L234_15Y/GpL16-k0 (antibody, human IgG1, kappa)
heavy: not shown
light: B1 light
notes: also called Ho Ab L234_15Y
B13: GpH7-B3 variant H268_20W/GpL16-k0 (antibody, human IgG1, kappa)
heavy: not shown
light: B1 light
notes: also called Ho Ab H268_20W
B14: GpH7-B3 variant L234_07I/GpL16-k0 (antibody, human IgG1, kappa)
heavy: not shown
light: B1 light
notes: also called Ho Ab L234_07I
B15: GpH7-B3 variant L234_04F/GpL16-k0 (antibody, human IgG1, kappa)
heavy: not shown
light: B1 light
notes: also called Ho Ab L234_04F
B16: GpH7-B3 variant E333_11K/GpL16-k0 (antibody, human IgG1, kappa)
heavy: not shown
light: B1 light
notes: also called Ho Ab E333_11K
B17: GpH7-B3 variant K334_20W/GpL16-k0 (antibody, human IgG1, kappa)
heavy: not shown
light: B1 light
notes: also called Ho Ab K334_20W
B18: GpH7-B3 variant I336_01G/GpL16-k0 (antibody, human IgG1, kappa)
heavy: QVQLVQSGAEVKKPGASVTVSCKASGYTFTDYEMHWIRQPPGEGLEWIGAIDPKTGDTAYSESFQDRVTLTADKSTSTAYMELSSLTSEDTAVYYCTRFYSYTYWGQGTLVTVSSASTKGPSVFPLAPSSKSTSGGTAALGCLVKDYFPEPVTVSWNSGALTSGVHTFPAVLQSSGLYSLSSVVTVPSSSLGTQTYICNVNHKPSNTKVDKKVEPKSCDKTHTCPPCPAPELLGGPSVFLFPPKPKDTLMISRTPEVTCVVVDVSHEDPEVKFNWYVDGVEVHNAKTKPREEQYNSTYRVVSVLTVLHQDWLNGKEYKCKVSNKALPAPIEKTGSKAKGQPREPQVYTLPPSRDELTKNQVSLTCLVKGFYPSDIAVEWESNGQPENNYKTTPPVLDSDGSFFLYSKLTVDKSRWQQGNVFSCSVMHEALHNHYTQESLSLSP
light: B1 light
notes: also called Ho Ab I336_01G
B19: GpH7-B3 variant E333_04F/GpL16-k0 (antibody, human IgG1, kappa)
heavy: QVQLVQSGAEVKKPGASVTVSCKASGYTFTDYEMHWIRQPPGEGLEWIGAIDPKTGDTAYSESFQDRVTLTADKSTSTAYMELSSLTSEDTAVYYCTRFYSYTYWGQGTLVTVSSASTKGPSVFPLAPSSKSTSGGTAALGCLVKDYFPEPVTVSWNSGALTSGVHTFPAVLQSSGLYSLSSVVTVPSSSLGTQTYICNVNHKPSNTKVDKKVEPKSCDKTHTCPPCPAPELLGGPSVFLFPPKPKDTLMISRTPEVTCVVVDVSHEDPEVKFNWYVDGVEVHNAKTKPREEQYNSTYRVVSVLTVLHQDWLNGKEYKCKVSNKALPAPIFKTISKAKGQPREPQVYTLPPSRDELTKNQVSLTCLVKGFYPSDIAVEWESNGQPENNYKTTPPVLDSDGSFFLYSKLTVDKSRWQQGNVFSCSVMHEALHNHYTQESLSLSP
light: B1 light
notes: also called Ho Ab E333_04F
B20: GpH7-B3 variant I336_10E/GpL16-k0 (antibody, human IgG1, kappa)
heavy: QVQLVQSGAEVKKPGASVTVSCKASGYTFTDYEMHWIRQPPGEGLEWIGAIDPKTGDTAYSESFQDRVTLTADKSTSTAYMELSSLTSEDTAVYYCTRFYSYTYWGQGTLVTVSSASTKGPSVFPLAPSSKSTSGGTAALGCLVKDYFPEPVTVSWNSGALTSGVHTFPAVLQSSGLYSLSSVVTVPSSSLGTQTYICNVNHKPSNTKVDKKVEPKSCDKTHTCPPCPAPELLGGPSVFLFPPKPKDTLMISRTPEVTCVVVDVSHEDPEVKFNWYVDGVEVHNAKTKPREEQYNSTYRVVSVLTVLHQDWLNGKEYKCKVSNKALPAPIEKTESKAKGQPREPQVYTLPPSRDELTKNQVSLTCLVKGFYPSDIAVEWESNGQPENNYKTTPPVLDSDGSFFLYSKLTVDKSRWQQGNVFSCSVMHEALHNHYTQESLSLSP
light: B1 light
notes: also called Ho Ab I336_10E
B21: GpH7-B3 variant E333_15Y/GpL16-k0 (antibody, human IgG1, kappa)
heavy: not shown
light: B1 light
notes: also called Ho Ab E333_15Y
B22: GpH7-B3 variant I336_04F/GpL16-k0 (antibody, human IgG1, kappa)
heavy: not shown
light: B1 light
notes: also called Ho Ab I336_04F
B23: GpH7-B3 variant E333_07I/GpL16-k0 (antibody, human IgG1, kappa)
heavy: not shown
light: B1 light
notes: also called Ho Ab E333_07I
B24: GpH7-B3 variant H268_05P/GpL16-k0 (antibody, human IgG1, kappa)
heavy: not shown
light: B1 light
notes: also called Ho Ab H268_05P
B25: GpH7-B3 variant K334_12R/GpL16-k0 (antibody, human IgG1, kappa)
heavy: not shown
light: B1 light
notes: also called Ho Ab K334_12R
B26: GpH7-B3 variant K326_12R/GpL16-k0 (antibody, human IgG1, kappa)
heavy: not shown
light: B1 light
notes: also called Ho Ab K326_12R
B27: GpH7-B3 variant E333_08L/GpL16-k0 (antibody, human IgG1, kappa)
heavy: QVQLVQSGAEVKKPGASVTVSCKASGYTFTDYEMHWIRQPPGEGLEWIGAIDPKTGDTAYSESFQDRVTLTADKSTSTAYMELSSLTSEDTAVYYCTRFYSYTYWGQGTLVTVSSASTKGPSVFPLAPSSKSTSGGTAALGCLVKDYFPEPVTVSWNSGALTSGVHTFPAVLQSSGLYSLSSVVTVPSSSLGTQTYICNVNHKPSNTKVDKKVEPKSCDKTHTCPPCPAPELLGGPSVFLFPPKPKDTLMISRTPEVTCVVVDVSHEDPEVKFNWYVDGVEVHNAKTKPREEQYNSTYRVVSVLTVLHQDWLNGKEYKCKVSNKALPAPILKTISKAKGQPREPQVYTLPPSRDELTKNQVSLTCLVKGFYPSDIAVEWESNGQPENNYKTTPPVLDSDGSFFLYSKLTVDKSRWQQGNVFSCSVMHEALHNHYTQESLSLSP
light: B1 light
notes: also called Ho Ab E333_08L
B28: GpH7-B3 variant K326_14T/GpL16-k0 (antibody, human IgG1, kappa)
heavy: not shown
light: B1 light
notes: also called Ho Ab K326_14T
B29: GpH7-B3 variant P238_08L/GpL16-k0 (antibody, human IgG1, kappa)
heavy: not shown
light: B1 light
notes: also called Ho Ab P238_08L
B30: GpH7-B3 variant L234_06M/GpL16-k0 (antibody, human IgG1, kappa)
heavy: not shown
light: B1 light
notes: also called Ho Ab L234_06M
B31: GpH7-B3 variant L234_10E/GpL16-k0 (antibody, human IgG1, kappa)
heavy: not shown
light: B1 light
notes: also called Ho Ab L234_10E
B32: GpH7-B3 variant I336_03V/GpL16-k0 (antibody, human IgG1, kappa)
heavy: not shown
light: B1 light
notes: also called Ho Ab I336_03V
B33: GpH7-B3 variant E333_06M/GpL16-k0 (antibody, human IgG1, kappa)
heavy: not shown
light: B1 light
notes: also called Ho Ab E333_06M
B34: GpH7-B3 variant H268_02A/GpL16-k0 (antibody, human IgG1, kappa)
heavy: not shown
light: B1 light
notes: also called Ho Ab H268_02A
B35: GpH7-B3 variant K334_10E/GpL16-k0 (antibody, human IgG1, kappa)
heavy: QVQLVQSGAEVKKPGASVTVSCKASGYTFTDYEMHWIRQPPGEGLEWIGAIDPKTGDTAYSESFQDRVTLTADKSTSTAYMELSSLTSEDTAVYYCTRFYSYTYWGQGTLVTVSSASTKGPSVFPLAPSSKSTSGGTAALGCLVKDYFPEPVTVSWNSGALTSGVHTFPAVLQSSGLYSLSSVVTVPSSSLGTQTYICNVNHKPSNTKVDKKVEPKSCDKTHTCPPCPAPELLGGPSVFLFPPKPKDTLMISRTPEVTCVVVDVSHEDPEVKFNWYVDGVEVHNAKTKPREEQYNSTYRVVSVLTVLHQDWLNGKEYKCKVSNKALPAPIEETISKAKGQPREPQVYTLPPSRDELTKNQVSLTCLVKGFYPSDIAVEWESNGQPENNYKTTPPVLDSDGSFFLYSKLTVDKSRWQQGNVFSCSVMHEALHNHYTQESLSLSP
light: B1 light
notes: also called Ho Ab K334_10E
B36: GpH7-B3 variant K326_18N/GpL16-k0 (antibody, human IgG1, kappa)
heavy: not shown
light: B1 light
notes: also called Ho Ab K326_18N
B37: GpH7-B3 variant P238_03V/GpL16-k0 (antibody, human IgG1, kappa)
heavy: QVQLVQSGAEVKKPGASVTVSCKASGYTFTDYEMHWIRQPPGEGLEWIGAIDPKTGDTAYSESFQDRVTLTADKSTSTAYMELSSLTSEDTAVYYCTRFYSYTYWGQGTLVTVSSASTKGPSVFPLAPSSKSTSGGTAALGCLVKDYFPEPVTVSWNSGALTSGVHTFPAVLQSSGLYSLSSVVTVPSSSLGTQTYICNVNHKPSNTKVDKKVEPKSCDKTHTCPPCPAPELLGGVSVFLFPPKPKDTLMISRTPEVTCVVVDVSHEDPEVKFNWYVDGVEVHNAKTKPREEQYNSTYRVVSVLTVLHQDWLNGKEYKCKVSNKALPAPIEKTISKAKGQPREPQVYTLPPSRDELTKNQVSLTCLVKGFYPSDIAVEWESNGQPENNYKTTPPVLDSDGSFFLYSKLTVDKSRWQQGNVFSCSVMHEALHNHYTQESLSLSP
light: B1 light
notes: also called Ho Ab P238_03V
B38: GpH7-B3 variant L234_03V/GpL16-k0 (antibody, human IgG1, kappa)
heavy: not shown
light: B1 light
notes: also called Ho Ab L234_03V
B39: GpH7-B3 variant H268_07I/GpL16-k0 (antibody, human IgG1, kappa)
heavy: not shown
light: B1 light
notes: also called Ho Ab H268_07I
B40: GpH7-B3 variant E333_12R/GpL16-k0 (antibody, human IgG1, kappa)
heavy: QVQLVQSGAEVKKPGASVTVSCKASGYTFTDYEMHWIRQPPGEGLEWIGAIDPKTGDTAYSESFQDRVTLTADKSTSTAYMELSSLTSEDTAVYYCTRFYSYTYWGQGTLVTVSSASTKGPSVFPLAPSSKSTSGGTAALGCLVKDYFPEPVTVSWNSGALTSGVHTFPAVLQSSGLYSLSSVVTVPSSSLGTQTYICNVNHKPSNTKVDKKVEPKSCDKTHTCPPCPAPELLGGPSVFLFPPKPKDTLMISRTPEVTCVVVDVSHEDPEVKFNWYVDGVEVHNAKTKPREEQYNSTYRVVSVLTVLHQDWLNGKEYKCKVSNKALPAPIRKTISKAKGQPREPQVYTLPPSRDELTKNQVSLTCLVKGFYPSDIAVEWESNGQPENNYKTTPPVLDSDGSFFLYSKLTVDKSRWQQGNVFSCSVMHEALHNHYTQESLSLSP
light: B1 light
notes: also called Ho Ab E333_12R
B41: GpH7-B3 variant E333_05P/GpL16-k0 (antibody, human IgG1, kappa)
heavy: not shown
light: B1 light
notes: also called Ho Ab E333_05P
B42: GpH7-B3 variant K326_16H/GpL16-k0 (antibody, human IgG1, kappa)
heavy: not shown
light: B1 light
notes: also called Ho Ab K326_16H
B43: GpH7-B3 variant P238_04F/GpL16-k0 (antibody, human IgG1, kappa)
heavy: not shown
light: B1 light
notes: also called Ho Ab P238_04F
B44: GpH7-B3 variant L328_03V/GpL16-k0 (antibody, human IgG1, kappa)
heavy: not shown
light: B1 light
notes: also called Ho Ab L328_03V
B45: GpH7-B3 variant E333_14T/GpL16-k0 (antibody, human IgG1, kappa)
heavy: not shown
light: B1 light
notes: also called Ho Ab E333_14T
B46: GpH7-B3 variant E333_13S/GpL16-k0 (antibody, human IgG1, kappa)
heavy: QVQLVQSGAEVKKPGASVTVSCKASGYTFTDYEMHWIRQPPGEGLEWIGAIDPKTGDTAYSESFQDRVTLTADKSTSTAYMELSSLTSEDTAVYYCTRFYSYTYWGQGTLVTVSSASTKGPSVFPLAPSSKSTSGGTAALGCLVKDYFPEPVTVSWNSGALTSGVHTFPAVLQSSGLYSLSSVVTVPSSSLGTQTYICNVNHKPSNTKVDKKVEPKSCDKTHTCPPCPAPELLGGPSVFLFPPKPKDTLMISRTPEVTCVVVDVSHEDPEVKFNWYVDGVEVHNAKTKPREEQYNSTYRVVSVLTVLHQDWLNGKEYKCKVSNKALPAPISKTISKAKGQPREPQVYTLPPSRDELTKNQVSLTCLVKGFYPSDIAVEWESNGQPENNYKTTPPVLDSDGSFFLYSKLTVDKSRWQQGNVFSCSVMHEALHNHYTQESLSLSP
light: B1 light
notes: also called Ho Ab E333_13S
B47: GpH7-B3 variant L328_14T/GpL16-k0 (antibody, human IgG1, kappa)
heavy: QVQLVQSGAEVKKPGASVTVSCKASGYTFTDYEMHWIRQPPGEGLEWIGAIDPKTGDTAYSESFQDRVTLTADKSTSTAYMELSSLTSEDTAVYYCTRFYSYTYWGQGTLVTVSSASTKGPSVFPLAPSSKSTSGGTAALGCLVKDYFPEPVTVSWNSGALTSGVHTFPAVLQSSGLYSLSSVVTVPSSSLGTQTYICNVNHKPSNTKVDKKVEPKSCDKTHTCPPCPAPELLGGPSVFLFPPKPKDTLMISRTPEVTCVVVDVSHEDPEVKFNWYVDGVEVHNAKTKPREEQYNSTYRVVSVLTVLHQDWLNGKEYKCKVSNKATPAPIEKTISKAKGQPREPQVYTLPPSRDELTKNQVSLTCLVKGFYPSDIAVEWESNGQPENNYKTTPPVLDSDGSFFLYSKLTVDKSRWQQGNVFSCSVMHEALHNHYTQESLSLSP
light: B1 light
notes: also called Ho Ab L328_14T
B48: GpH7-B3 variant H268_08L/GpL16-k0 (antibody, human IgG1, kappa)
heavy: not shown
light: B1 light
notes: also called Ho Ab H268_08L
B49: GpH7-B3 variant I336_18N/GpL16-k0 (antibody, human IgG1, kappa)
heavy: not shown
light: B1 light
notes: also called Ho Ab I336_18N
B50: GpH7-B3 variant I336_02A/GpL16-k0 (antibody, human IgG1, kappa)
heavy: not shown
light: B1 light
notes: also called Ho Ab I336_02A
B51: GpH7-B3 variant G236_20W/GpL16-k0 (antibody, human IgG1, kappa)
heavy: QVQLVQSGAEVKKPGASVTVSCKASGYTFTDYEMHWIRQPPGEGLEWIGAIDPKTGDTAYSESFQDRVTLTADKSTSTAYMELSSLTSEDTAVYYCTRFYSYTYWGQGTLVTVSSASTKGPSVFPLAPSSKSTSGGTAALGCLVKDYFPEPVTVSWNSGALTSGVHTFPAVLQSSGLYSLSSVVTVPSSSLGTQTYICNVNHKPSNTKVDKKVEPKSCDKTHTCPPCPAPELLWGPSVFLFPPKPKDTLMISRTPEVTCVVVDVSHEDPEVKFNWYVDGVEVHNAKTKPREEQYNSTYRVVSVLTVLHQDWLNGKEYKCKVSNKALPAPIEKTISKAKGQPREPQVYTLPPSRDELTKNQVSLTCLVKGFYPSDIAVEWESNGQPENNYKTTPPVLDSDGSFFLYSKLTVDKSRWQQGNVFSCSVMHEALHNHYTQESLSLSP
light: B1 light
notes: also called Ho Ab G236_20W
B52: GpH7-B3 variant K326_15Y/GpL16-k0 (antibody, human IgG1, kappa)
heavy: not shown
light: B1 light
notes: also called Ho Ab K326_15Y
B53: GpH7-B3 variant K334_06M/GpL16-k0 (antibody, human IgG1, kappa)
heavy: not shown
light: B1 light
notes: also called Ho Ab K334_06M
B54: GpH7-B3 variant I332_12R/GpL16-k0 (antibody, human IgG1, kappa)
heavy: not shown
light: B1 light
notes: also called Ho Ab I332_12R

T1 sequence (P12314 16-292): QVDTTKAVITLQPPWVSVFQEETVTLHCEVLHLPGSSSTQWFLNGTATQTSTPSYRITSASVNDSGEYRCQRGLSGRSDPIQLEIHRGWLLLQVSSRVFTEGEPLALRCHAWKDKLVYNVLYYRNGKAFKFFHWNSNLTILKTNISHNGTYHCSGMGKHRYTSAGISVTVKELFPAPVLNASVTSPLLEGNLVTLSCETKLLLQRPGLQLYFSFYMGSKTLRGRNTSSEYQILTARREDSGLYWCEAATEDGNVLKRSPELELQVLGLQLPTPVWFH

This experiment has as its target T1, FcγRIa (human, UniProt P12314 16-292).
T1 construct: extracellular domain; also called FcgRI; 1a
Description: SPR (Biacore); Ho Ab relative to HoCon Ab = 100. As to the method:
Analysis of interaction between objective antibody and the FcγR was carried out using Biacore T100 (GE Healthcare). HBS-EP+ (GE Healthcare) was used as the running buffer, and the measurement temperature was set to 25° C. Chips produced by immobilizing the antigen peptide by the amine coupling method to a Series S Sencor Chip CM5 (GE Healthcare), or alternatively, chips produced by allowing preliminarily biotinylated antigen peptides to interact with and immobilize onto a Series S Sensor Chip SA (certified) (GE Healthcare) were used. Antibodies of interest were captured onto an antigen peptide-immobilized chip, and allowed to interact to each FcγR diluted with running buffer. To regenerate and repeatedly use the chip, the antibodies captured on the chip were washed off by reacting 10 mM glycine-HCl, pH 1.5.
A general note: In SPR one partner is held on a chip, and binding of the other changes the refractive index at the surface.
B1: the Ho/Con_1a is 98.4 % of control. The result for B2 reads 105 % of control; that for B3, 104 % of control. Regarding B4, the Ho/Con_1a is 92.4 % of control.

Consider B5, for which the Ho/Con_1a is 99.9 % of control. The result for B6 reads 99.3 % of control; that for B7, 100 % of control; that for B8, 103 % of control. Take B9: the Ho/Con_1a is 101 % of control. The result for B10 reads 99.1 % of control; that for B11, 109 % of control.

As to B12, the Ho/Con_1a was 98.9 % of control.

For B13, the Ho/Con_1a is 106 % of control. As to B14, the Ho/Con_1a was 99.5 % of control. B15: the Ho/Con_1a was 93.5 % of control. As to B16, the Ho/Con_1a was 95.8 % of control. As to B17, the Ho/Con_1a is 104 % of control. Turning to B18, the Ho/Con_1a was 104 % of control. As to B19, the Ho/Con_1a was 98.4 % of control.

As for B20, the Ho/Con_1a was 107 % of control. As for B21, the Ho/Con_1a is 100 % of control. Turning to B22, the Ho/Con_1a is 104 % of control.

With B23, the Ho/Con_1a was 99.9 % of control. As for B24, the Ho/Con_1a is 108 % of control. Regarding B25, the Ho/Con_1a is 102 % of control. The result for B26 reads 100 % of control; that for B27, 99 % of control; that for B28, 103 % of control. The result for B29 reads 100 % of control; that for B30, 96.5 % of control. In the case of B31, the Ho/Con_1a is 79.6 % of control. The result for B32 reads 105 % of control. B33: the Ho/Con_1a was 99.5 % of control.

Turning to B34, the Ho/Con_1a is 106 % of control. As for B35, the figure is 107 % of control; as for B36, 102 % of control.

Regarding B37, the Ho/Con_1a was 97.9 % of control. For B38, the Ho/Con_1a is 98.2 % of control. In the case of B39, the Ho/Con_1a is 106 % of control. Consider B40, for which the Ho/Con_1a is 94.2 % of control. B41: the Ho/Con_1a was 99.2 % of control. The result for B42 reads 101 % of control; that for B43, 98.7 % of control; that for B44, 99.2 % of control.

Take B45: the Ho/Con_1a was 98.7 % of control. With B46, the Ho/Con_1a is 101 % of control. For B47, the Ho/Con_1a is 98.6 % of control.

As to B48, the Ho/Con_1a was 105 % of control.

For B49, the Ho/Con_1a is 104 % of control.

As to B50, the Ho/Con_1a is 103 % of control.

As for B51, the Ho/Con_1a is 104 % of control. B52: the Ho/Con_1a is 101 % of control. As for B53, the Ho/Con_1a was 104 % of control. For the molecule B54, the Ho/Con_1a is 93.2 % of control.
